The data set can be described thus: label from the status in PepcDB records.
As to “MKNVLLLGESGFVGSVVYNSLHCVCKVYTIAPNKKITIDNVFEVANDVFKSIEINNIDVVINCIAMANLDQCENNKLDCELVNTTFVTHIVDYLKDKDIKLVHISSNAVYDGLNAPYSENSLREPINYYGICKSNADYYIESNLNNYAIARPITVYGPRKIEQRDNPVSFIVKKILSGESFDLVDDNIVNMIHVEDLSNAIKKLSLSDLKGVYNLSGDVSECRYDLGIRIAKIMGSDLNKINKVSGSNFKMAAKRPYNTSFDNKKMKSVLNIEPKNIDIAISEILNAKAY”, the protein production result is on record as “failed”.
Regarding “MKNYQKMSVAQDARVELHDSLALTGAEVSINHLPAGAGVPFVHSHKQNEEIYGILSGKGFITIDGEKIELQAGDWLRIAPDGKRQISAASDSPIGFLCIQVKAGSLEGYTMTDGVVQLEHHHHHH”, the protein production entry is “not failed”.
Consider “MKPFMNNTKQLKRPLLNKQELALFAATILWGITFLVIHIAVRYSGPLFFVGFRFMVASLICGAIFWRSLKGITVYEIFAGMAIGLGMFLGYALQATGLQTIISSQSAFITALYVPIVPILQWIVFKKPPRLACWLGIIFAFIGLILISGKKSGSFDFSKGEILTLLGALAIAGEVILIGIFAHKVDSRRVTIIQLFFSGLFSFFCMPFIGESIPPFSWVWLNIGIGLALMSAIIQLAMNWAQKSISPTRATLIYAGEPVWAGIVGRLAGEHLSPLALLGGALILIGIVVAELQPSQWRKKKNNLKK”, for which the protein production result is “failed”.
As to “MKPIRYTIAPAAPEAHLFTVTVTVDAPDPQGQRFSLPAWIPGSYMIREFARNIVRIEAMCGERAVRLAKLDKHTWQAAPCSGPLTVSYDVYAWDLSVRAAHLDPTHGFFNGTSVFLRVEGGEQVRCLVDIQPPAGDAYRGWRVATALREASGRVQGRVGAKRYGFGWYEAADYDELIDHPVEMGTFALVSFEACGAQHDAVFTGRVPNLDLERIARDFKRICEAQIRLFEPHTAAAPFLDSNRRYVFMTMVTTDGYGGLEHRASTALICARNDLPVTGRDETTEGYRTFLGLVSHEYFHTWNVKRIKPAVFVPYALDREVHTPLLWLFEGFTSYYDDLMLVRSGLISEAQYLEMLAKTWNGVLRGSGRLKQSVAESSFDAWTKYYRQDENAPNAIVSYYTKGSLVALALDLTIRTQTGGEHSLDDVMRALWAAGGRDFYAPGHAQRGVTEAELIALMEETTGLRLRTLVRQLAEGRDDPPLPALFKAIGVTATRKPAEAALGLGAKVGAENGFVKLLQVFDGGPAQRAGLSAGDLVVAVDGLRVLSGQLDKSLARHRAGDTVPVHVFRRDELMQLDVTLSADATPQFALALSAEPSPLRSAWLGKRAAARGARPAKSRSAA”, the protein production entry was “failed”.
With “MKPLRTRFLRWRGAAAGGLLAGALLASPAWAAKQADWWVYVHNDKARDIGALLAAGADPNVRYDNGQPAIMRAVVDNAWEVFDVLAANRRTDLNAENPAGETPLMYLAVAGQTERAQALIARGAQVNRLGWTPLHYAASKGRLETARMLLGKQALVNAPSPDGTTPLMMAAYSGDRRMVQLLLDAGADITTRNLKGMSAADWAAFGKSEALARELKPMIARAEAERQARHGAVATSKLAPAAETPPTAQPAAASAAASQPGEGRSLSGVSGVRLNSYD”, the protein production result was “failed”.
In the case of “MKPNIVLIMVDQMRGDCLGVNGNEFIETPNLDMMATEGYNFENAYTAVPSCIASRASILTGMSQKSHGRVGYEDGVSWNYENTIASEFSKAGYHTQCIGKMHVYPERNLCGFHNIMLHDGYLHFARNKEGKASTQIEQCDDYLKWFREKKGHNVDLIDIGLDCNSWVSRPWGYEENLHPTNWVVNESIDFLRRRDPSKPFFLKMSFVRPHSPLDPPKFYFDMYKDEDLPEPLMGDWANKEDEENRGKDINCVKGIINKKALKRAKAAYYGSITHIDHQIGRFLIALSEYGKLNNTIFLFVSDHGDMMGDHNWFRKGIPYEGSARVPFFIYDPGNLLKGKKGKVFDEVLELRDIMPTLLDFAHISIPDSVEGLSLKDLIEERNSTWRDYIHGEHSFGEDSNHYIVTKKDKFLWFSQRGEEQYFDLEKDPKELTNLINSEEYKERIDYLRKILIKELEGREEGYTDGNKLLKGYPVSTLKHIR”, the protein production result is recorded as “failed”.
As for “MKPRGICFFDMDGTLLNSESKVLDTSLQALDKLRENNVIPVIATGRTLIEISHQMKITGIESAVMMNGQMAIFEGEKVYEDVIDADLLDRLTEEAKSQNVEVCYYNDKRIGATASTPVVKAHYDFLGEPMPKVRPNMYKEETINMALLLLETGDDYFPERFPELQFVRNTPFSNDVLRKGGSKAVGISKLLEVMGYQDVPTYAFGDGMNDLEMFGAVDYAIAMENAVPLLKEKADFVTKDNNSDGIMLGLKQFDLI”, the protein production result was “failed”.
Turning to “MKPRISVIIPTYNREELLRRAIESVLDQTFDDFEILVIDGAKSESTRELVRSFGDGRIRYIPQKGKGIANARNLGVSKARGEFIAFLDDDDRWRRDKLELQLELFKVLPQSYGVVYTAFTYYYLEKDKVLGIKHPRASGDVYKHLLKDNITGTSTIMVKRECFKKVGLFREDFVTCEDWDMWLRMAKVCYFGAIDEPLVDYSIHSGQFSFAKYLEGRYKMIEKHLDIKRNPRVLSYHLLQIGVLKLFSGDKRGVEDLLKAFRLNPTIRGNIWDILSSFVDVRTRIYILKFLGRLLEHHHHHH”, the protein production entry is on record as “not failed”.
Take “MKPSGEDQAALAAGPWEECFQAAVQLALRAGQIIRKALTEEKRVSTKTSAADLVTETDHLVEDLIISELRERFPSHRFIAEEAAASGAKCVLTHSPTWIIDPIDGTCNFVHRFPTVAVSIGFAVRQELEFGVIYHCTEERLYTGRRGRGAFCNGQRLRVSGETDLSKALVLTEIGPKRDPATLKLFLSNMERLLHAKAHGVRVIGSSTLALCHLASGAADAYYQFGLHCWDLAAATVIIREAGGIVIDTSGGPLDLMACRVVAASTREMAMLIAQALQTINYGRDDEK”: the protein production entry is “not failed”.
Regarding “MKPTLLVLAAGMGSRYGGVKQIAAVGRHDETLLDYAVYDAMNNGFGKVVFIIREDIENDFRERFFNRIARNCNADYVFQSMDGFLTDEQIKRAVNRKKPWGTAHAILSAELKINEPFAVINADDYYGRSAYKTIATHLSTLSNDSTEHAMVGYILDKTLSRSGSVSRGVCQVGNGYLIGITEHKDIAYKKEGSVEKIVSEHEGKTVEFSGKETVSMNLFGFSPKIFDFMNEYFKDFIHKYAESEKAECLLPEGVGAMMKKGLGKVKVYTTTERWFGMTYPEDREIVKKELENKVKEGYYPEFLWR”, the protein production result was “failed”.
Consider “MKPVAPRSFFAMDFLEFITAWEGKWLSQRTNYSFEQNEAGNAKSDVTVQRWDSQTELGRSLLERAGLKNQGELILLQLSWDNSVDWGKSKQKGTIYYGFLPDADHGDRGQLWRGTTNSNLAFLRGDYHLGSDECLTLNLGDGETSLTERHWYASPNLRLRTSLIQQGEGYSHSAFYSDIRRLPPAE”, for which the protein production entry is given as “failed”.
Take “MKQEEEPWIDHLKQRVNEYEKPLPENDWNHFQTEFFTPYLHKRRRMKTMRIAAVFFLIFIPFATTFYFLQTEKHEAASPVVSLPACQPRSITGSPSIMPENKLLQDRTKSKTASLTRPPIQTSIHTDTANNIETECMPPVQDTIRDTESVHKRPSGHKHFALPYKRSGYTLALAISAGNNGASTGFINKTFSRGDIGSSHKDEIMYWSDFKDYLQEYPSDFPDAQAYEALLQIANDNTGRPMTEYTHYNLPVSIELSLRKSISRHWGVSAGLQYTYLSSESSIGEDSKWVKRQKLHYIGLSVKLDRRLYTTRTFSFYATGGGTIDKSVSGKLEQDFIVQKEKIYSSTENLKIKPFQFSIHAALGIQYNINPTLGAFIEPGTVFYFKDGSFKNTIRDKHPLHFNLQLGVRWNY”: the protein production result was “failed”.
With “MKQEFVAAIEIDGTGRIHVTPGESQFPYIYREAMEVSWNESTRSLHSPVPREWSYAQWLQQIFAAASEQGVKLVLGPNTRWVNVPNELRAELTHAAAA”, the protein production entry was “not failed”.
Take “MKQGKISDYVNPVPIKITDDKAIFKVEKLVPTPYIERVLPLEYAPLYEQLAELDTAIPKIVCLEKSDRLTVIEEYIDSPRLDQYLETHKLTSAQIHDLICQLLDVLAVLHQQIPPIIHRDIKPENIFYDGQKLILADFDIARNMQEDADRDTRILGSVGYAAPEQFGFSQSGPASDFYAVGVLMNVLYTGYLPSVRLYKGPEREIIEKATHINSQKRYQSAQEFKDAITGLGRSSWLLPGFRSHQPARMLTAGCGYLLMLFSSFSMDAKSDSAADSFLLRLSFFMVLFLIVLFACNYRNIKSICLFHSSKSKFTRACGIIISYLLVATVLTTALAALSVAISSFGH”: the protein production entry was “failed”.
For the sequence “MKQGPSSEDDCFSLLKQFEHVLESDPLIDEVGFIHPSQFTMLDKEAGFSNEFQPNNGTSSKFWNQDHKLGISTDILVQLCKDAKHVFLLALQEYKSHGNACDESQIKNISCSPCIPESDVMKHSQSVLLLSSDFGTAWNARKLILSKKDHLSAFTEELRLSGLILSNSPKSESTWSHRRWIIKMISQSFSTLQEIITKESELVESIGERSKMNYRAWYHRCWLVSYMTIEQVIQELNKSKRWAGLHVADSSCFHYRRVRAAYSVDVIVRLMLKILESLYVKGSSAYDKTEARKIWKEELDWNEELVERYVGREALWLHRRFLSLNWIMYFACNHSDASPETGESIIMNEEIAIFIDNEIRLLDSSMTVPDTKFEDFQAQALHAAVYTLWLTKSIPVLWRMLEEKLGTEKVKCVLNTIAQERPSLLHHLVNV”, the protein production entry was “failed”.
Turning to “MKQHILVLEDANQRRTIILDEQQYSIGRHSGTSIQIHSRQASRHHATLMRKTNSKTNEECFWIIDGDLEGNKSQNGVFVNGEKRLIHELKNGDLINFGCSINASYHVTGEGFGESSSQPVEILPQTSPYNEAVSAQIASSYNTREGVDLLAGSNDETFHEQSYLDTATDLPNQTLFLEYLNIALSNARRHHAQVGVLLCQINNWSDLKRKRGDAVANAFLQEAGQKLKSNLRNGDIVSRWDKDEFIFLVSKVQDTSSLLGIAQRLMKPVLAPVTAGGRPFQPEITYGVALYPVDGEQVNDLIGHIRENLQQLLPQPTNPGSGEADDHIETAVDVRIGAPQPVPGLSDSDQKRLAIVEKRLLRALEQHELELYYQPQINWRKKTIEAMEAFIRWQHPQKGLLPPGQFLPWSDQTEFMVPLTRWILETACQQNVLWQQQLQTPFLVSVNISEKQFYHPLLKNMVMEAIAMAKMETHYLELEIQESTVMKDFGLAQQIITNLHNYGVGFSLDDFGTDYMSLRCLQDLPFQKLKIDKSLTAQLLEQTDNVPNLTMMETLINLGKTFNLKVVAEGVEQEEQINILDSLNCFFMQGYCFSEPLNILAANSFLHKYIAGN”, the protein production result is on record as “failed”.
Consider “MKQIIDIENWERKENFNFFRHFQNPQLSITSEVECGGARQRAKAAGQSFFLHYLYAVLRAANEIPEFRYRIDPDGRVVLYDTIDMLSPIKIKENGKFFTTRFPYHNDFDTFYQEARLIIDAIPEDGDPYAAENEEVADGDYGLILLSATPDLYFTSITGTQEKRSGNNYPLLNAGKAIIREGRLVMPIAMTIHHGFIDGHHLSLFYKKVEDFLK”, for which the protein production result is “not failed”.
For the sequence “MKQKELWINQIKGLCICLVVIYHSVITFYPHLTTFQHPLSEVLSKCWIYFNLYLAPFRMPVFFFISGYLIRRYIDSVPWGNCLDKRIWNIFWVLALWGVVQWLALSALNQWLAPERDLSNASNAAYADSTGEFLHGMITASTSLWYLYALIVYFVVCKIFSRLALPLFALFVLLSVAVNFVPTPWWGMNSVIRNLPYYSLGAWFGATIMTCVKEVPLRRHLLMASLLTVLAVGAWLFTISLLLSLVSIVVIMKLFYQYEQRFGMRSTSLLNVIGSNTIAIYTTHRILVEIFSLTLLAQMNAARWSPQVELTLLLVYPFVSLFICTVAGLLVRKLSQRAFSDLLFSPPSLPAAVSYSR”, the protein production result is “failed”.
Take “MKQKSLNPLSSSSPNYDEMIQENFKPHWIIGIDPNLSGALAVLKFDDKGSCFAQVYDTPQLEVVVQNIRTRSFNEKSMLELIRSLDVPSGTKAFVAKYIHPENAITAYNDGLGCGLWTLLTSSISVIYVTPSTWDKHFNLSIWSLDGGRKLALEMFPSLKLTTKIDDNARANALLIAAYGHATSDTRYYSFSQIK”: the protein production entry is given as “failed”.

These data come from a protein production outcome set (Wang et al. 2014).
